Test results from the supplement of paper PMC12636428.

Test system: Saccharomyces cerevisiae
Assay: transcriptional activation domain activity (GFP:mCherry ratio, weighted mean of sorted bins, harmonized to initial dataset scale) (arbitrary fluorescence ratio units); higher = stronger transcriptional activation
Details: beta-estradiol 1 µM; induction time 4 h
Summary of the method: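 The activation activity of each tile is the read-weighted mean of bin median fluorescence, averaged across its barcodes and mapped linearly onto the scale of the initial dataset. Tiles were fused to an estradiol-inducible synthetic transcription factor, barcoded, and integrated at URA3 in yeast diploids carrying a GFP reporter. Induction used 1 uM beta-estradiol in SC for 4 hours at 30 °C, after which cells were sorted into 8 GFP:mCherry bins, and any tile with fewer than 50 reads was dropped.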

| Sequence | transcriptional activation domain activity |
| --- | --- |
| GWVVILSSRCRIKTSVSRERLKMDVFWLIESIGLTVEYWRIVWDLRATYHFLR | 33000 |
| LFLMVWYLLMFSFDKKAIEHAWGLMGLLSKLAQSLSLRKFVHSEILAHHLIGS | 80300 |
| SSGGDSGGDDTTTTTKKSRPRHHHLAHHHLHHLHHLHYLHHFHHHTHQHDDHL | 22900 |
| MIIYYIGSIFWCLGNLQVGGFFGFDGIWSYCIFWRNWVRDVFGLSVLIGVVNY | 44900 |
| HGPMFHFSISNWVEGAKLAGHGNPTGHNPELILNNFRTPLGLLTAHLFKTMFP | 52200 |
| KAVAALRRQTGQEAVEVEVAPIRQKRRETVGATVTTARPVAGSQTGPALTQVT | 14800 |
| ACLFTMELILHNIYAVAIRSAGSPVWSSFTPFELSMFGFWNLIIVWMKLLLPW | 54700 |
| TVSDEAIEVCVAAQAREGEANKSVREVIAEALNVPKSDVEIAKGMKSREKTVA | 25700 |
| SASASAAPAASTAGSADKSGGAQEKHRGGRRRGGRGRGDKESGGKEGGSKNTE | 34400 |
| EDEEEEAEKAESKPPKKARKSKAEPAVDEDEPAVKPKKKATAASKKRKAESEE | 21100 |
| RLVYLMAKNKFGADAQQEFIGDYFRTDSATFRDVRVLFGLLSRSWFGRVWCIQ | 52200 |
| KEKAKAKAKERKREERRKEKEKRAKEKEREKKRLREKEKRRKEKEKEKRRKEK | 14900 |
| EVYFGLVNRRFRELLLVHERCFDLKVPNYRLMSILLAYLLRHTMVTPKVKYPE | 29700 |
| MLRLLFWYLLIFVCLFCSSSPSYLSIFCLFFLCLIFIPSSSYILLPFLFLTLY | 37500 |
| RMPKDCKSREFRDKAHDAVDAFAVDLEKRLRDENRPALLKLACLLMVLHQIEL | 58600 |
| MFLEGVLQFVFFFFFFFPVYLSTFIFKFLAVGFLGSYLFLLVQLMQLIHSLIL | 31900 |
| WIDTVLIVLFSNDVQIKHKLGRLIIDEWIQIKCPTRTCLLLKLLRKKLHNSLA | 33500 |

| Sequence | transcriptional activation domain activity |
| --- | --- |
| PVPFDPPMPVDGLGFLPGDGWMDAMDDIGPLEALDLGFLPVDFWEPHFNRQWN | 135000 |
| HSPYLNSEADFSQILSSAPPVHHDPNETHQENQDIIDRFANSSQEHNEYILQY | 66200 |
| MGGCICLRWSCVNVFFSFVYSFGLACCFTSWEYGGVYLGEGGCFLFYLSFFFL | 50500 |
| SEPEEEDSSSKKRKRKADDEGKKKAKKGKKAAGSDDEDEDANSVHISVTQAVS | 36600 |
| SRRAHSSDRDEARSARRRGRDRSRSRNRSRSWSRHRHRHRSHSRDAPAAAAAR | 22600 |
| FILSGCTFRLLFCIFGIRVWLDHQLCGNLLVVELYRKIVRSIDAYHHGKGYPT | 61700 |
| DFWDYLIVSLVPSLCVFFVRYFMFMVLFIVVGYFIPLLMCYMSYSIIRYPLFH | 43400 |
| FFRRALNFLFDIALVPMIVCSSYAIFEVPSNVFLKRLRPSLWLSLLMLLWGIM | 69000 |
| APPPPPPPPPPPPPPPSSSSAPSPSSTSAPPPPPPPPPPPPPPPGGGGPPPPP | 32900 |
| SFVAYFSALWRGKQHRMTGYPIYDFFMGAELNPRMFGILDFKMFFEVRMPWYI | 67400 |
| MPRLCCSCCYTDSLYFMIIRDRFFWLLHNGIVVVSLISYIRCMMISSPLLVGH | 48400 |
| VPMAYHHYIALLIFGAYLSNVNALCVLSLLPLLLHSLFWSLGATNFLLLSVYN | 56600 |
| QTVNFGWSDLPHDVYTHLSSDFENPFYFDGIFPTLVDYSPLIVSPPNFLTLEP | 138000 |
| ERVIGGIQEDLLLIKTFLTRLSLSHHIHNFHADSWSLGHLASLSWYSFMVWFL | 80000 |
| FKEGVSLTVLDELYRWQKYAYGCDEIIFNPIFTWWKKGPISLQLRNFVWSIAP | 57100 |
| AAPVAEAAPATEAAPASEPSTEAEVPKEEKTEDKKEEKAPKSPKIGRRLSSRV | 17000 |
| MIPFQTGQVMGMLNRIDRLPLKEILTYAMPYLLEKTNVSMIIRQYLWSTLGNH | 44100 |
